The nature of the series: label from the status in PepcDB records.
For “MKFTKNQFIWLVVLFFSCFLIYTYWETVVSICNKIFVASQPFLFGAGIAFVVNILMSFYEKILIKFIPFGFITKIKRPVSLLLAFATIGLIFTWVVFTVLPDLIDSINTLISQDRSAINNLINWLLKNKSLQKIIQDLGGVTQVRELINSYSAQLLQQIMNGLTNFLTSLTSLPSTLINLFISIVFSCYVLVGKEKLGSQVNRLVDVYLGRYGKTFHYVVAILNNRFHNFFVYQSIEACILGTLCYIGMRIFNFPYAATISILIGFSAMIPVLGAYIGVTIGTILIMTHSVTLALLFVAYVVILQQFEGNLIYPYVVGGSTGLPVVWVILAITIGSALGGILGMLVSVPVAATLYQIVKDNVVTREKAKAVASLENSD”, the protein production result was “not failed”.

As for “MKGILFAVFAGIFITLQGTFNAKLSSHIGIWSTSIITHLIGFIIATTVFLLKKEEKVTDLKSVKKIYLVAGAFGGFIICAETMAIYSLGVTLTAGTLMAAQLLTATVIEMKGLFHIKKIQMERYHIVGTIVMIIGIVVFNM”, the protein production entry is listed as “failed”.

As to “MKGLRRLVLDVLKPHEPKTIVFALKLSELENVDGVNIHLSEIDQATENIKITILGNNLDYEQIKGVIEDLGGVIHSVDEVVAGKIIVESVKTEQDLEHHHHHH”, the protein production result is listed as “failed”.

With “MKGNCLLKEYQVTMSDDAKADLLSIYHYVRDELCAPQAADDLLERLSQGMLSLSIFPERCAIIEDLIGKGYTFRQLIVKKYRIVYHVLEDEVIIVAVVYGSRHMNNWLEHHHHHH”, the protein production result is recorded as “failed”.

Take “MKGNSFGEIISSEDIGLRKGADSSHEIITSIPSGARVNIIDKMSKDWYKVSYKDFTGYLQAKDIRVLGLEHHHHHH”: the protein production result was “failed”.

“MKGTFTNLLVLLLIALVCANVGARKLISEDTQFKDEKSFLGGGGSGDGLGLGLGGGAGLGGLGIGAGIGAGAGLGLGGGGGGLGGGGGGLLGGGGFGGGAGGGLGGLP”: the protein production entry is recorded as “failed”.

Turning to “MKHFKLPDLGEGLQEAEIVEWHVKAGDSVRADQRLVSVETAKALVDIPAPYDGVVGKLFGAEGDILHVGEPLVGFEGEEADAGTVVGRLEGGGSALEDRFFIGAAPSTREHLAPRATPAVRQFARQQGVELAGLSGSGPDGLITRADVEAAAQGTRERFGGERLRGVRRSMALNMARSHAEVVPVTIYGDADLHRWKTARDPLIRLAQALAEACRAEPTLNAWFDGASLSLKLHERLDLGIAVDTPDGLFVPVLRDVGARSAEDLRAGMRRLREDVQARSIPPAEMLGATLTLSNFGTLFGRYANPVVVPPQVAILGAGGIRDEVVAWRGEMAIHPILPLSLSFDHRAATGGEAARFLKVLVNALEQPD”, the protein production result is recorded as “failed”.

Turning to “MKHFLTLRDFSKEEILSLVNHASELKKEPKKLLQDKTLAMIFEKNSTRTRMAFELAITELGGKALFLSSNDLQLSRGEPVKDTARVIGAMVDFVMMRVNKHETLLEFARYSKAPVINALSELYHPTQVLGDLFTIKEWNKMQNGIAKVAFIGDSNNMCNSWLITAAILGFEISIAMPKNYKISPEIWEFAMKQALISGAKISLGYDKFEALKDKDVVITDTWVSMGEENEKERKIKEFEGFMIDEKAMSVANKDAILLHCLPAYRGYEVSEEIFEKHADVIFEEARNRLYVVKALLCFLDNQRGRE”, the protein production result is reported as “not failed”.

Turning to “MKHIHIIGIGGTFMGGLAAIAKEAGFEVSGCDAKMYPPMSTQLEALGIDVYEGFDAAQLDEFKADVYVIGNVAKRGMDVVEAILNLGLPYISGPQWLSENVLHHHWVLGVAGTHGKTTTASMLAWVLEYAGLAPGFLIGGVPENFGVSARLPQTPRQDPNSQSPFFVIEADEYDTAFFDKRSKFVHYRPRTAVLNNLEFDHADIFADLGAIQTQFHYLVRTVPSEGLIVCNGRQQSLQDTLDKGCWTPVEKFGTEHGWQAGEANADGSFDVLLDGKTAGRVKWDLMGRHNRMNALAVIAAARHVGVDIQTACEALGAFKNVKRRMEIKGTANGITVYDDFAHHPTAIETTIQGLRQRVGGARILAVLEPRSNTMKLGTMKSALPVSLKEADQVFCYAGGVDWDVAEALAPLGGRLNVGKDFDAFVAEIVKNAEVGDHILVMSNGGFGGIHGKLLEALR”, the protein production entry was “not failed”.

In the case of “MKHKGLIRSYEMEFAFLYRLSDLAVIVTFMLLLVLKDTNTSMDKDYVILSFVGGISFLFMAESGNLYRSWRTSSFREQMFIVCMSWLMTSALLFMVLYFSEVYPLFDRSILALWVTITPALLLAWRVTFRTVLAYLRKMGFNTRTAIIIGQTPHGITLANEIQNHTEHGVLFDGFYDERSSDRLPSSEYPIKGAVNQALERAKRGEVDYVYIAMPMHAKERIASILNQFSDTTANTYLIPDFFTYNLLHSRWDQIGQVQTLSVFDTPFAGVSSWIKRFEDILCSSIILVLISPILLAIAIGIKLTSKGPVIFKQHRYGLDGRKIEVWKFRSMTTMDQGPNIKQATKNDPRITPFGSFLRRTSLDELPQFINVLQGTMSIVGPRPHAVAHNEEYRQIVARYMLRHKVKPGITGWAQINGYRGETDTLDKMEKRVEFDLDYIHHWSVWMDIKIIFLTVFKGFTGSNAY”, the protein production entry is recorded as “failed”.

In the case of “MKHPDALRIALVGIGKIARDQHVPTIAARDDVQLVATVSRHGTVDGVPAYHTLEDAFAAQPQIEAVALCTPPVGRHALAQAALAAGRHVFLEKPPAATLAEIHDLQDVAQRAQRTLFTSWHSRCAAGVEPARAWLADKQLVRAHITWKEDIRHWHPGQDWILEPGGMGVFDPGINALSIATHLLPRSLALRDAELHTPENRQAPLYARLAFVDTAGLPVTAEFDFLQTGHQRWDIEVETTAGMLMLSEGGAKLRIEGQLQALPASSEYDGLYGRFVQLVRAGQSEVDIAPFVHVADAFMLGARQVTAPFAW”, the protein production result was “failed”.

On to “MKHPDPAQKVEGTTATTPTKVAAFFDLDKTIIAMSSTYAYGREFMNSGLISPVEALQLSLAQATYMFAGHTSEQMDNTRDQLTAMIRGWEVQQVRSIAEETMHSVVTPTIYAEARELIEHHQELGHDVIIISASVKELVEPIARELGVHKTVTTVLEAHDGMYTGEVLFYCKGDAKAQSILDLAEANNYDLSLSFAYSDSFTDLPMLEAVGNPAAVNPDRALKKIALEQGWKILSFKNPEPLFQMPSTRDVGIGTGVVAGIAAVTAGSIWWMKRARRGSA”, for which the protein production entry is recorded as “failed”.

As to “MKHVHGNGLVLGAAAFVFLAAQPVSAQTTQITEVKLNPGNGGLSVVLKTSAGSRPQVFTTKRGKALVADIINTQLRLPQGNNFRQDKPAAGIASVEVVQLDANSIRVIVTGDSDAPTSQPVIRQQDGITLSLTPSTGTTASAPVTPRPPVSTTPPASTPAQTGVVPNVLVPNPQVTIDGKPAQPAGPGQPLSQAPPFLPRAVAPPVGDIAISATDASPSTIDLGTQERVPRLVLRDAPVREVLSLLARAANLNLAYISDGVGGTPAAGGQGISQTISLDIENEPVQDVFNYVLRLSGLEANRSNRTIFVGPKLPNSTRDVVMRNLRLNQVNVGVALNFLVGLGAETAVSRERQVTNVNAVPVGTGVAPITQTQTTTETRVETQRINFQDSNPLLRGLQALGDERTNSLTLIGPPKLVEMAMNQLTQLDIRRRQVVVNVKIIDVNLSNTQDNNASLSFGIGNNYFSSDGGAASLNIGGLNPPSAGNVRNSLNPTVTTNPYSSGNTFLDLTQSVGPVPDTGVDTRNITINNPGGGSITETQGQDLNFVQRRAGISGDPFETGITAVTQGTPNIIRRTTTTDPTTGAVTETTTVTEGTRGSITAALPSLFQYPKRLLANLQAQVTNGNAKILTDPTLIVQEGQTANVKLTQEVVGNITSETTRGDGASTQTVTAEKTDVGLTLAVKIDRIDDNGFVSLSVAPVVKAPQSSAVINVSGNSQTIFLVSERSLNSGMIRLRDGQTLILSGIIQDQDRTSVSKIPILGDIPLIGSLFRKTNRTNERREVIVLLTPQVMDDSQNSSYGYNYSPSPEVRQMLERRGLNTPRR”, the protein production entry is given as “failed”.

Regarding “MKHVRSHLPRVLLGLMISVSLVLAGCANNGTGSSMLGGSGTDPDPRLTKSTDSSFFSTSGLTACAAAAGVGILACAVASPSDKVKCMVVAGIAACGVAMGANYYYDYRRSKYSNTAQRLQLMNDDVKADTEKVAQRTYTLQQVINDDKERIAGIQKSIKTKTLDKAKAQQEIASVDSNLAQMNKDLTGMRSKVAEYKKTADLERASDGGTQVTAIDGEISKMNSKVASLQKEVDGLYSQRQAITLG”, the protein production entry is given as “failed”.

Consider “MKIAIAGAGAMGSRLGIMLHQGGNDVTLIDQWPAHIEAIRKNGLIADFNGEEVVANLPIFSPEEIDHQNEQVDLIIALTKAQQLDAMFKAIQPMITEKTYVLCLLNGLGHEDVLEKYVPKENILVGITMWTAGLEGPGRVKLLGDGEIELENIDPSGKKFALEVVDVFQKAGLNPSYSSNVRYSIWRKACVNGTLNGLCTILDCNIAEFGALPVSESLVKTLISEFAAVAEKEAIYLDQAEVYTHIVQTYDPNGIGLHYPSMYQDLIKNHRLTEIDYINGAVWRKGQKYNVATPFCAMLTQLVHGKEELLGAK”, for which the protein production entry is “not failed”.

For “MKIAIASGKGGTGKTTVAVNLALALEEVQLFDCDVEEPNCNLFLGFEMEPVEEVVFLVPEINPDKCTLCRGCSDFCRYNALAAIPNRILSFPSLCHGCGGCSFVCPAGAIEEKPETIGIIQKALSDSPLTFFCGTLKIGKATATPVIKSLQNHIDESRPAIIDSPPGTACPVLAVMGFADYCVLVTESTPFGFHDFCLALEAARALNVPVGVVLNRDGLGDSRVEDFCRAEGIPILLRIPNDRTIARLYSEGIPFVKEMPEWKKQFKDMFETIKTGLYESKGVQLEHHHHHH”, the protein production result was “failed”.

As to “MKIAIFGTTLHAGVMAALLAERGNDVFWCADHDYKGLEEQIVCQTYQEQDVNRLLVKQRQLGFLKDCRFSSIPLDIEAYLFCFSPTELQFALEVTQLLNIRPIIHPRLMINGSTFGLHGTEKLKQNLPKDHWVYFPDMIQEGNAINSVLTVKHVIVGVESDYTKTIMHEMLRPFFRFNHQYLFMPILDAEFTKLSISGMLATRISYMNDMALVAEKLGIDIANVKEGMAADTRIGSAYLSAGVGFGGENFSHDILTLSNVVSDTGARSRLLEQVWEINEQQKEVLFRKLWNYYHCDLKDKVVAIWGAAFKENTSNIHNAPIHSMLTALWAQGAIVKLHDPQALEEIQARYGKRNDLILCTEQYEATRGAHALCVMTVWKQYLSPDYKKLQQLMAHPFILDGRNVYDPVYIKQQGFAYEGIGRL”, the protein production result is recorded as “failed”.

In the case of “MKIALINENSQASKNHIIYDSLKEATDKKGYQLFNYGMRGEEGESQLTYVQNGLMAAILLNTKAVDFVVTGCGTGVGAMLALNSFPGVVCGLAVDPTDAYLYSQINGGNALSIPYAKGFGWGAELTLKLMFERLFAEEMGGGYPRERVIPEQRNARILNEVKQITHNDLMTILKIIDQDFLKDTISGKYFQEYFFENCQDDEVAAYLKEVLAK”, the protein production result was “not failed”.

Consider “MKIATIKTGLASLAMLPGLVMAAPAVADKADNAFMMICTALVLFMTIPGIALFYGGLIRGKNVLSMLTQVTVTFALVCILWVVYGYSLAFGEGNNFFGNINWLMLKNIELTAVMGSIYQYIHVAFQGSFACITVGLIVGALAERIRFSAVLIFVVVWLTLSYIPIAHMVWGGGLLASHGALDFAGGTVVHINAAIAGLVGAYLIGKRVGFGKEAFKPHNLPMVFTGTAILYIGWFGFNAGSAGTANEIAALAFVNTVVATAAAILGWIFGEWALRGKPSLLGACSGAIAGLVGVTPACGYIGVGGALIIGVVAGLAGLWGVTMLKRLLRVDDPCDVFGVHGVCGIVGCIMTGIFAASSLGGVGFAEGVTMGHQLLVQLESIAITIVWSGVVAFIGYKLADLTVGLRVPEEQEREGLDVNSHGENAYNA”, for which the protein production entry is on record as “failed”.

For “MKIAVLGTGTVGRTMAGALADLGHEVTIGTRDPKATLARAEPDAMGAPPFSQWLPEHPHVHLAAFADVAAGAELVVNATEGASSIAALTAAGAENLAGKILVDIANPLDFSHGMPPTLNPVNTDSLGEQIQRTFPEAKVVKTLNTMNASLMVDPGRAAGGDHSVFVSGNDAAAKAEVATLLKSLGHQDVIDLGDITTARGAEMLLPVWIRLWGALGTANFNFKIAR”, the protein production entry is “not failed”.

The values above are taken from a protein production outcome set (Wang et al. 2014).
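Also: failed if final PepcDB status was selected cloned or expressed and not failed if soluble or beyond.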
